Earlier results in PMC4316816.
pKd: −log10 of the molar value.

Target: ANP (UniProt P01160)
Chain of UniProt P01160 (P01160 124-151): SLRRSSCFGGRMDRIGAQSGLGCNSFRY

pKd: 7.62
Substance: GC-A/NPRA (from UniProt P16066)
